{"source": "paper doi:10.1101/2024.02.01.578502", "about": "(bioRxiv, 2024)", "test_in_all_cases": "cryo-EM structure", "key": {"[1]": {"target": "dihydrolipoyl transacetylase (E2) (porcine (endogenous in porcine heart mitochondria))"}, "[2]": {"target": "dihydrolipoamide dehydrogenase-binding protein (E3BP) (porcine (endogenous in porcine heart mitochondria))"}, "cryo-EM structure": {"target": "the molecule itself"}}}
{"molecule": "dihydrolipoyl transacetylase (E2) (enzyme)", "values": [{"measurement": "stoichiometry N", "setting": "[1]", "result": 60}]}
{"molecule": "pyruvate dehydrogenase (E1) α2β2 heterotetramer (from UniProt P29804 31-390) (complex)", "values": [{"measurement": "N, LD per E1 heterotetramer", "setting": "[1]", "result": 1}, {"measurement": "N, PSBD per E1 heterotetramer", "setting": "[1]", "result": 1}, {"measurement": "percent of E1 heterotetramers with additional density (LD)", "setting": "[1]", "result": 82, "unit": "%"}, {"measurement": "ratio of E1 with LD bound to E1 without LD bound", "setting": "[1]", "result": 4.5, "unit": "times"}]}
{"molecule": "dihydrolipoyl dehydrogenase (E3) dimer (enzyme, UniProt P09623 36-509, looked up) ADQPIDADVTVIGSGPGGYVAAIKAAQLGFKTVCIEKNETLGGTCLNVGCIPSKALLNNSHYYHMAHGKDFASRGIEMSEVRLNLEKMMEQKSNAVKALTGGIAHLFKQNKVVRVNGYGKITGKNQVTATKADGSTEVINTKNILIATGSEVTPFPGITIDEDTVVSSTGALSLKKVPEKMVVIGAGVIGVELGSVWQRLGADVTAVELLGHVGGIGIDMEVSKNFQRILQKQGFKFKLNTKVIGATKKSDGNIDVSIEAASGGKAEVITCDVLLVCIGRRPFTQNLGLEELGIELDPRGRIPVNTRFQTKIPNIYAIGDVVAGPMLAHKAEDEGIICVEGMAGGAVHIDYNCVPSVIYTHPEVAWVGKSEEQLKEEGIEYKVGKFPFAANSRAKTNADTDGMVKILGQKSTDRVLGAHIIGPGAGEMINEAALALEYGASCEDIARVCHAHPTLSEAFREANLAASFGKAINF", "values": [{"measurement": "stoichiometry N", "setting": "[2]", "result": 1}, {"measurement": "stoichiometry N", "setting": "cryo-EM structure", "result": 2}]}
